From article PMC11758708, “Natural variation in MdNAC5 contributes to fruit firmness and ripening divergence in apple”

Biological target: MdNAC5A (Malus x domestica (Fuji / Cripp's Pink), UniProt A0A498K6T8 1-364)
Test: EMSA; EMSA/Gel-Shift Kit (Beyotime) per instructions; buffer, salt, pH and temperature not stated
Settings: protein: recombinant; tags: His (pET-32a); chain copies: 2; label: 3' biotin (both strands); blunt

Chain of MdNAC5A (A0A498K6T8 entry or part of it): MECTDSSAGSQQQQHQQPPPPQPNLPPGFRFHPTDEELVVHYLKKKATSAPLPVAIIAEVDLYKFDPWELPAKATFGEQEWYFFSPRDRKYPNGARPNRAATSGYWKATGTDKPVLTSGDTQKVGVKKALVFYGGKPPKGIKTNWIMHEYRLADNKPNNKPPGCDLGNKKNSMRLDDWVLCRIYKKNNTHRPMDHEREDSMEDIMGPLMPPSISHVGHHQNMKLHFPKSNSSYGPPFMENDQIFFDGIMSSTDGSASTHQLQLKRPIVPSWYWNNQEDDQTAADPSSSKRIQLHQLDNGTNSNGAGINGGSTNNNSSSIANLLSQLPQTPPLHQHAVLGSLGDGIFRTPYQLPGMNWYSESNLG

B1: MdACS1 probe (dsDNA)
DNA 1: CCTGTGACAATATTACATGTGGCATGTCAATTGAGA
DNA 2: TCTCAATTGACATGCCACATGTAATATTGTCACAGG
**Q.** Does B1 bind?
**A.** binds
